Experimental data reported in the supplement of paper PMC9170038.

Test system: MS2 coat protein
Experiment: apparent KD of MS2 coat protein; designed switch direction (-1 OFF switch, 1 ON switch): 1; higher = weaker reporter binding
Procedure, shortened: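 RNA switches sharing common flanks were transcribed by stalled E. coli RNA polymerase on Illumina chips. A doubling series of SNAP-549-labelled MS2 coat protein, from 0.7 or 1.5 nM to 3 µM, was applied in Tris-HCl pH 7.5 buffer with KCl, MgCl2, BSA, DTT, tRNA and Tween-20. Each step lasted 0.8–1.5 h at the bottom of the series and 10–20 min at the top. Normalised cluster fluorescence was curve-fitted, giving apparent KD as the per-design median over clusters.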

[1] = input ligand: microRNA oligo, concentration not stated
[2] = Eterna round: R95, input ligand: FMN 200 uM
[3] = Eterna round: R95, input ligand: microRNA oligo, concentration not stated
[4] = Eterna round: R95, input ligand: none

Sequence	apparent KD of MS2 coat protein (input ligand: FMN 200 uM) [nM]	apparent KD of MS2 coat protein [1] [nM]	apparent KD of MS2 coat protein (input ligand: none) [nM]	apparent KD of MS2 coat protein [2] [nM]	apparent KD of MS2 coat protein [3] [nM]	apparent KD of MS2 coat protein [4] [nM]
GCGGAACAGGCCGACAUGAGGAUCACCCAUGUGGCCUCAUGUCAGGAUAUCGGGAAGAAGAAAACCGAGAAGGGACGGUGACGC [AK SSNG3-V2-33.2] (Eterna round: R96, puzzle: Same State NG 3)	23.4	9.43	10.1	–	–	–
GCGGAACCUGACAUGAGGAUCACCCAUGUUCCGGAAACGGCACAGGAUAUCUGUCCGAAAAGGUCAGAGAAGGGUGUAAACCGC [Fiskers NG3ss - 97] (Eterna round: R96, puzzle: Same State NG 3)	29	325	210	–	–	–
GCGGACCUCACAUGAGGAUCACCCAUGUUGCGGAGACGCAAUGAGGAUAUCGAUGGGUUUCCCGUCGAGAAGGCAUAAAUCCGC [JL SSNG3 3.93 mod 4] (Eterna round: R96, puzzle: Same State NG 3)	109	44.5	56.6	–	–	–
GCUACAUGAGGAUCACCCAUGUGUGCGUGGGAGUGAGUGGCUUAGGAUAUCUAUGACUUGAGUUGAGAGAAGGAGGAUUGCUGU [SS-NG3-LRO12] (Eterna round: R96, puzzle: Same State NG 3)	105	82.6	118	–	–	–
GCUACGGCAGUAGGAUAUGUAGGAUAUGGCGAGAGCUAAGCUUGGAAGUCACUUCAGCCAGAAGGACAGAAGGACACCGUGAGG [pwkr ssNG2 2FMN + F9.16] (Eterna round: R96, puzzle: Same State NG 2)	125	22.5	24.7	–	–	–
GCUAGAAAUAAAGCCAACAUGAGGAUCACCCAUGUAUGUUGGUAGGAUAUCGUAUGCAAAGCAUACGAGAAGGGCUAAUCUAGC [Mat - Same State NG 3 - JL Mod - D66] (Eterna round: R96, puzzle: Same State NG 3)	90.8	57.4	90.2	–	–	–
GCUAGUAAAAUUGCUAACAUGAGGAUCACCCAUGUAUGUUGGCAGGAUAUCGUUUGCAAAGCAAACGAGAAGGGCUAAACUAGC [Mat - Same State NG 3 - JL Mod - D15] (Eterna round: R96, puzzle: Same State NG 3)	30.2	47.5	86.8	–	–	–
GCUCGAAUCACAACCAACAUGAGGAUCACCCAUGUGUGUUGGUAGGAUAUCGUUUCUAAGGGAAACGAGAAGGGCCGAACGAGC [SameState NG3 #8] (Eterna round: R96, puzzle: Same State NG 3)	18.9	12.4	21.7	–	–	–
GCUCGAUGAGCGAUUUACAUGAGGAUCACCCAUGUACGUGGGCAGGAUAUUUACGUGCGGUGUGUAGAGAAGGGCCCAUCGAGC [SameState NG3 #71] (Eterna round: R96, puzzle: Same State NG 3)	62.5	206	332	–	–	–
GCUCGAUGUGUUGUCUACAUGAGGAUCACCCAUGUAGGUGCGGAGGAUAUCUACGUGCUUUAUGUAGAGAAGGUCGUAUCGAGC [SameState NG3 #86] (Eterna round: R96, puzzle: Same State NG 3)	21.5	54.3	71.4	–	–	–
GCUCGCACGAUGACCCACAUGAGGAUCACCCAUGUGCGUGGGCAGGAUAUCUAGAUUAAGGAUGUAGAGAAGGGUUGAGCGAGC [SameState NG3 #25] (Eterna round: R96, puzzle: Same State NG 3)	555	136	302	–	–	–
GCUCGCACGAUGACCCACAUGAGGAUCACCCAUGUGCUUGGGCAGGAUAUCUAGAUUAAGGAUGUAGAGAAGGGUUGAGCGAGC [SameState NG3 #27] (Eterna round: R96, puzzle: Same State NG 3)	308	113	230	–	–	–
GCUCGCGGCGCAGGAUAUGGGUGCCUGUACAUGAGGAUCACCCAUGUUAAGGGACGGAAAACGAACCAGAAGGGCGUCGCAAGC [Zaorquor] (Eterna round: R96, puzzle: Same State NG 2)	56	167	140	–	–	–
GCUCGGACGAUGACCCACAUGAGGAUCACCCAUGUGCGUGGGCAGGAUAUCUAGAUUAAGGAUGUAGAGAAGGGUCGACCGAGC [SameState NG3 #30] (Eterna round: R96, puzzle: Same State NG 3)	415	58.4	386	–	–	–
GCUCUACAUGAGGAUCACCCAUGUCCGAACGCGCGAGGAUAUGCAUGGGCGAAAGCUGGUGCAGAAGGCGUGGGAC [2theCorner] (puzzle: Same State 1)	–	–	–	315	202	358
GCUCUACAUGAGGAUCACCCAUGUUCGGACGCACGAGGAUAUGCAUGGGCGAAAGCUGGUGCAGAAGGCGUGGGAC [inDCorner] (puzzle: Same State 1)	–	–	–	–	150	–
GCUGCAAGGGCAGGAUAUGGGUCCAGAGCGCAAGUGCGCCCUGGUACAUGAGGAUCACCCAUGUCCCAGAAGGGCCCAAGCAGC [Vetierribi] (Eterna round: R96, puzzle: Same State NG 2)	12.9	68.9	87.6	–	–	–
GCUGCACAUGAGGAUCACCCAUGUCUUCGGAGUCGAGGAUAUGGUCACUGUAAACAGUGGCCAGAAGGCGAGUAGC [SS1 - Son of Teenbexe v6] (puzzle: Same State 1)	–	–	–	30.8	37.8	32.3
GCUGGAAACCACAUGAGGAUCACCCAUGUUCCGGAAACGGCACAGGAUAUCUGUCCGAAAAGGUCAGAGAAGGGUGUAACCAGC [Fiskers NG3ss - 86] (Eterna round: R96, puzzle: Same State NG 3)	190	338	245	–	–	–
GGAAGGAGGUCAGGAUAUGAACGGAAGGUACAUGAGGAUCACCCAUGUUACGGAGGAAACCCACGUUAGAAGGGACAAGGAAGG [AK SSNG2-V2-4] (Eterna round: R96, puzzle: Same State NG 2)	19.6	15.6	30.5	–	–	–
GGAAUAUGAUGUUACAUGAGGAUCACCCAUGUAGUGAUAACUAAGGAUAUUUGAAAGGGAGGAGAAGAGAAGGUAGGAUCAUAA [AK SSNG3-V2-11.1] (Eterna round: R96, puzzle: Same State NG 3)	60.7	47.6	63.7	–	–	–
GGAAUGUGAUGUUACAUGAGGAUCACCCAUGUAGUGACAACUAAGGAUAUCUGAAAGGAAGGAGAGGAGAAGGUAGGAUCACAA [AK SSNG3-V2-16] (Eterna round: R96, puzzle: Same State NG 3)	15.2	24.1	40.8	–	–	–
GGACGUCAACUCAACAAUUAAACAUGAGGAUCACCCAUGUCACAGGAUAUGGAUCCUAAUUGGAUCCAGAAGGGUGAGACGUCC [Fiskers NG3ss - 42] (Eterna round: R96, puzzle: Same State NG 3)	95.9	100	79.2	–	–	–
GGAGAACAUGAGGAUCACCCAUGUGAGAGGGAUGUAGGAUAUGUGAGGAGUAAAGGAGGGACAGAAGGACAGAGAU [JR_SS!_Sub068] (Eterna round: R96, puzzle: Same State 1)	–	30.4	–	–	–	–
GGAGAACAUGAGGAUCACCCAUGUGAGAGGGAUGUAGGAUAUGUGAGGAGUAAAGGAGGGACAGAAGGACAGAGAU [JR_SS!_Sub068] (puzzle: Same State 1)	–	–	–	37.4	40.5	47.7
GGAGCCAAGGCAGGAUAUUCAUAUUAAAUAACAUGAGGAUCACCCAUGUAGGCCAGAAGGCCUUGGGAGAAGGGCCAUGGCUCG [Xeonanis - 13 mod21] (Eterna round: R96, puzzle: Same State NG 2)	21.1	109	189	–	–	–
GGAGCCGGCACCGAGGAUAUUCAUAUUAAAACAUGAGGAUCACCCAUGUAGGCCAGAAGGCCUUGGGAGAAGGCGGAUCGGCUCA [Xeonanis - 6] (puzzle: Same State 2)	–	–	–	29.5	376	491
